In IntAct's records for PubMed 23892456:

What was measured:
nanog_mouse Nanog [1] = biological target: nanog_mouse Nanog (UniProt Q80Z64)
nanog_mouse Nanog [2] = biological target: nanog_mouse Nanog (UniProt Q80Z64); remark: listed apart in the source
nanog_mouse Nanog [3] = biological target: nanog_mouse Nanog (UniProt Q80Z64); remark: listed apart in the source

Chain of nanog_mouse Nanog (Q80Z64 whole entry): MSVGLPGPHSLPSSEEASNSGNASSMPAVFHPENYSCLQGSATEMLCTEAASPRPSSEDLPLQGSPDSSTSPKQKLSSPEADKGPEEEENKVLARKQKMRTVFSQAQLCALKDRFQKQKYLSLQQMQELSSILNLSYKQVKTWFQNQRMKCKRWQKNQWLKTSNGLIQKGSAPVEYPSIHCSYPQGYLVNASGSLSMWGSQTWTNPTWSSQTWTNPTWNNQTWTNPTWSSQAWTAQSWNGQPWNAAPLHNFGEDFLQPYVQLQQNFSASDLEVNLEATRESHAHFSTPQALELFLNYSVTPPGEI
Chain of Transcription factor SOX-2 (Mus musculus), P48432 T217A (P48432 whole entry T217A): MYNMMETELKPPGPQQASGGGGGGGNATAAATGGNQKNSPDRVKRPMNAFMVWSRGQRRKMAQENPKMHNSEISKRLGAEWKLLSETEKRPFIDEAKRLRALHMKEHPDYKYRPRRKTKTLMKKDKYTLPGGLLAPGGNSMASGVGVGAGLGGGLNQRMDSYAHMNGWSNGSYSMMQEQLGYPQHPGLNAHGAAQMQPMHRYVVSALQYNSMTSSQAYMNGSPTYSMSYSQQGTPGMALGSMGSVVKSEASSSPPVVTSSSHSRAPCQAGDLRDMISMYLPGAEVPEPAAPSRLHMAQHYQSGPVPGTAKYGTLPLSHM
Chain of Transcription factor SOX-2 (Mus musculus), P48432 S228A (P48432 whole entry S228A): as the sequence (P48432 whole entry T217A) above, with A217T, S228A counted along it
Chain of Transcription factor SOX-2 (Mus musculus), P48432 T217A;T224A;S228A (P48432 whole entry T217A/T224A/S228A): as the sequence (P48432 whole entry T217A) above, with T224A, S228A counted along it
Chain of Transcription factor SOX-2 (Mus musculus), P48432 T224A (P48432 whole entry T224A): as the sequence (P48432 whole entry T217A) above, with A217T, T224A counted along it

Row | effect of a mutation on the interaction (nanog_mouse Nanog [1]) | Substance | also measured
1 | disrupting interaction | Transcription factor SOX-2 (Mus musculus), P48432 S228A | –
2 | – | Transcription factor SOX-2 (Mus musculus), P48432 T217A | effect of a mutation on the interaction (nanog_mouse Nanog [2]): disrupting interaction
3 | disrupting interaction | Transcription factor SOX-2 (Mus musculus), P48432 T224A | –
4 | – | Transcription factor SOX-2 (Mus musculus), P48432 T217A;T224A;S228A | effect of a mutation on the interaction (nanog_mouse Nanog [3]): disrupting interaction
